Measured values as given in PMC11987610, “Pseudomonas aeruginosa PfpI is a methylglyoxalase” (The Journal of Biological Chemistry, 2025).

Assays:
YhbO = biological target: T1, YhbO (Escherichia coli, UniProt P45470); test: 1D 1H NMR of end products; format: biochemical; conditions: 1 mM MGO, 20 μg enzyme, 50 mM PBS with 5% DMSO-d6, overnight, 4 °C
T1 construct: full-length ORF with N-terminal His6 tag (pET-19m), E. coli Rosetta (DE3); tagged mass 20,858 Da
T1 sequence (P45470 1-172): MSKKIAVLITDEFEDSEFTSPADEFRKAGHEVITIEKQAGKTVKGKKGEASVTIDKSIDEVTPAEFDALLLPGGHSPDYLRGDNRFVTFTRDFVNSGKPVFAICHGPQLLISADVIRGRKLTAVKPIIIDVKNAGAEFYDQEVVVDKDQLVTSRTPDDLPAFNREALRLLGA

[1] = biological target: Pseudomonas aeruginosa PfpI (PA0355), recombinant, N-terminal His6 tag (P. aeruginosa PAO1); test: AUC; sedimentation velocity; 25 mM Tris-HCl (pH 8.0), 100 mM NaCl; 0.5, 1.0 and 2.0 mg/ml PfpI; 20 C, 24 h
[2] = substrate: CC(=O)C=O; test: colorimetric lactate assay after heat quench, Michaelis-Menten fit; format: biochemical, Pseudomonas aeruginosa; conditions: PBS, 37 °C, 0.2 μM enzyme, glutathione-independent

CC(=O)C=O [methylglyoxal]
1D 1H NMR of end products (YhbO): both enzymes quantitatively convert MGO to lactate

Pseudomonas aeruginosa PfpI (PA0355), recombinant, N-terminal His6 tag (enzyme)
stoichiometry N [1]: 2

B1: PfpI (Pseudomonas aeruginosa PAO1) (protein)
chain: MTQSLHGKVVAALVTDGFEQVELTGPKKALEDAGATVRILSDKAGEVRGWNHHQPAEAFRVDGTFEDASLDDYDALLLPGGVINSDQIRSLAKAQELAIRAEQASKPVAVICHGAWLLISAGLVQGRTLTSWPSLKDDINNAGGHWVDQEVAVDGKLVSSRKPEDIPAFNRRFIEILAG
notes: full-length ORF (540 bp) with N-terminal His6 tag (pET-19m), E. coli Rosetta (DE3); tagged mass 21,246 Da
Km [2]: 369 ± 139 µM
kcat [2]: 1.72 ± 0.367 s⁻¹
